Results: paper PMC10167072, “Human granzyme B binds Plasmodium falciparum Hsp70-x and mediates antiplasmodial activity in vitro” (Cell Stress & Chaperones, 2023)

Legend:
[1] = biological target: PfHsp70-xT, truncated PfHsp70-x lacking the C-terminal EEVN residues (P. falciparum); test: SPR; Hsp70 immobilised (100 µg/mL) on CMD 3D 500L chip, GrB analyte 0-2000 nM, 25 °C, PBS-Tween 20 with 20 mM EDTA pH 7.4, 25 μL/min, 1:1 Langmuir global fit; with ADP
[2] = biological target: full-length PfHsp70-xF (P. falciparum); test: as above
[3] = biological target: PfHsp70-xT, truncated PfHsp70-x lacking the C-terminal EEVN residues (P. falciparum); test: SPR; Hsp70 immobilised (100 µg/mL) on CMD 3D 500L chip, GrB analyte 0-2000 nM, 25 °C, PBS-Tween 20 with 20 mM EDTA pH 7.4, 25 μL/min, 1:1 Langmuir global fit; with ATP
[4] = biological target: full-length PfHsp70-xF (P. falciparum); test: as above
[5] = biological target: PfHsp70-xT, truncated PfHsp70-x lacking the C-terminal EEVN residues (P. falciparum); test: SPR; Hsp70 immobilised (100 µg/mL) on CMD 3D 500L chip, GrB analyte 0-2000 nM, 25 °C, PBS-Tween 20 with 20 mM EDTA pH 7.4, 25 μL/min, 1:1 Langmuir global fit; no nucleotide
[6] = biological target: full-length PfHsp70-xF (P. falciparum); test: as above
human granzyme B = biological target: T1, human granzyme B (human, UniProt P10144 19-247); test: SPR; GrB immobilised on the chip, TKD peptides injected as analytes at 0, 125, 500, 750 and 1000 nM, 25 °C, 1:1 Langmuir global fit; no nucleotide; details: both partners purified
T1 construct: granzyme B, human, serine protease; Bought protein; also called GrB; human GrB; source: bought: Hölzel Diagnostics, Cologne, Germany

Molecule: human granzyme B (from UniProt P10144 19-247) (enzyme)
- Kd [1]: 2820 nM
- koff [1]: 2.24e-05 s⁻¹
- kon [1]: 2560 M⁻¹ s⁻¹
- Kd [2]: 1 nM
- koff [2]: 7.06e-06 s⁻¹
- kon [2]: 3850 M⁻¹ s⁻¹
- Kd [3]: 4.2 µM
- koff [3]: 0.000123 s⁻¹
- kon [3]: 5870 M⁻¹ s⁻¹
- Kd [4]: 1 nM
- koff [4]: 2.05e-05 s⁻¹
- kon [4]: 6990 M⁻¹ s⁻¹
- Kd [5]: 2370 nM
- koff [5]: 0.000732 s⁻¹
- kon [5]: 2140 M⁻¹ s⁻¹
- Kd [6]: 4 nM
- koff [6]: 1.64e-05 s⁻¹
- kon [6]: 4350 M⁻¹ s⁻¹

B1: TKD motif of hHsp70 (14-mer peptide) (peptide)
peptide: TKDNNLLGRFELSG
notes: 14-mer TKD motif of human Hsp70, amino acids 450-463; also called hHsp70 TKD motif
- Kd (human granzyme B): 4 nM
- koff (human granzyme B): 2.17e-05 s⁻¹
- kon (human granzyme B): 2930 M⁻¹ s⁻¹

B2: synthetic TKD peptide representing the 14-mer TKD motif of PfHsp70-x (peptide)
peptide: TKDNNLLGKFQLEG
notes: 14-mer TKD motif of PfHsp70-x, Plasmodium falciparum; also called PfHsp70-x TKD; source: synthetic peptide (Genscript, Piscataway, NJ, USA)
- Kd (human granzyme B): 20 nM
- koff (human granzyme B): 3.62e-05 s⁻¹
- kon (human granzyme B): 3130 M⁻¹ s⁻¹
